Reference: patent publication US12173330B2, “Method for producing hydroxy-L-pipecolic acid” (API CORPORATION, priority 2015, dated 2024)

How the values were obtained:
[1] = tested on: O=C(O)[C@@H]1CCCCN1; test: purified protein, by the assay type
[2] = tested on: O=C(O)[C@@H]1CCCN1; test: purified protein, by the assay type; details: other: substrate: L-proline, 20 mmol/L 2-oxoglutaric acid, 30° C.
[3] = other: substrate: L-pipecolic acid, 20 mmol/L 2-oxoglutaric acid, 30° C.

Substance | Km [1, 3] [µM] | Km ([1]; 30.0 °C) [µM] | Km [2] [µM]
Colletotrichum gloeosporioides Nara qc5 L-pipecolic acid trans-4-hydroxylase CgPH, SEQ ID NO: 12 (Colletotrichum fructicola Nara gc5) | 8560 |  | 
Gibberella zeae PH-1 L-pipecolic acid trans-4-hydroxylase GzPH, SEQ ID NO: 16 (Fusarium graminearum PH-1) |  | 4720 | 
Segniliparus rugosus ATCC BAA-974 L-pipecolic acid cis-5-hydroxylase SruPH, SEQ ID NO: 4 (Segniliparus rugosus ATCC BAA-974) | 1090 |  | 400
